Assay results: US20050042747A1, “Hivgp120-induced bob/gpr15 activation” (priority 2001, published 2005)

What was measured:
[1] = biological target: GPR15/Bob (human) (UniProt P49685); assay: cell-based or functional assay
[2] = biological target: CCR5 (UniProt P51681); assay: cell-based or functional assay
[3] = biological target: CXCR4 (UniProt P61073); assay: quantitative cellular enzyme-linked assay on HT-29-D4 cells

Chain of GPR15/Bob (human) (P49685 whole entry): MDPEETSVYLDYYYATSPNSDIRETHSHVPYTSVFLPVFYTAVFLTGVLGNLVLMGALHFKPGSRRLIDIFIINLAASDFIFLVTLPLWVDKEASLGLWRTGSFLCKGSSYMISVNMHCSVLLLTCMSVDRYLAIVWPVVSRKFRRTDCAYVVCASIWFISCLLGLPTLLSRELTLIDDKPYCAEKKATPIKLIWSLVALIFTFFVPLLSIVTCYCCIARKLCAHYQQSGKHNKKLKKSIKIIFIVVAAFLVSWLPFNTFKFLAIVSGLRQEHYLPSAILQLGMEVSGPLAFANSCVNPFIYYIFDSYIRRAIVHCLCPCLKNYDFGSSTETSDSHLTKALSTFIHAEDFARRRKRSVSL

gp120MN (from UniProt P05877 32-513) (ligand)
calcium signaling in HT-29 cells [1]: > 10 nM

gp12093TH975 (ligand)
minimal gp120 concentration giving a calcium flux, transfected Ghost (3) cells [2]: 100 nM | calcium signaling in HT-29 cells [1]: > 10 nM

gp120(SEN) (ligand)
relative TEER 20 min after the addition of gp120, HT-29-D4 cells (relative TEER) [1]: 2.52

gp120CM235 (ligand)
least gp120 concentration inducing calcium signaling, Bob-transfected Ghost (3) cells [1]: 8 pM | minimal concentration causing calcium signaling in HT-29 cells [1]: 2.5 nM | minimal gp120 concentration giving a calcium flux, transfected Ghost (3) cells [1]: 10 pM

gp120SF2 (from UniProt P03378 32-509) (ligand)
calcium signaling in HT-29 cells [1]: > 10 nM

gp120(IIIB), purified from HIV-1(IIIB) (from UniProt P03375 33-511) (ligand)
relative TEER 20 min after the addition of gp120, HT-29-D4 cells (relative TEER) [1]: 1.6

anti-CXCR4 mouse monoclonal antibody (clone 12G5)
concentration giving saturation binding [3]: 20 µg/mL
